Test results reported in patent publication US20230086069A1.

Biological target: cynomolgus CD19 (cynomolgus)
Test: BLI (Octet); cynomolgus CD19

Kd: 3.6 nM
B1: SI-63C2 (recombinant mAb with H1 humanized anti-CD19 variable sequence) (antibody, V domains shown)
VH: QVTLKESGPGLVQPGQTLRLTCAFSGFSLSTSGMGVGWIRQPPGKGLEWLAHIWWDDDKRYNPALKSRLTISKDTSKNQVYLQMNSLDAEDTAVYYCARMELWSYYFDYWGQGTLVTVSS
VL: ENVLTQSPASLSASPGERVTITCSASSSVSYMHWYQQKPGQAPKLWIYDTSKLASGVPSRFSGSGSGNDHTLTISSMEPEDFATYYCFQGSVYPFTFGQGTKLEIKR
